T1: DasR (Streptomyces verticillus ATCC 15003, UniProt A0A7M1Y6D7 1-256)
T1 sequence: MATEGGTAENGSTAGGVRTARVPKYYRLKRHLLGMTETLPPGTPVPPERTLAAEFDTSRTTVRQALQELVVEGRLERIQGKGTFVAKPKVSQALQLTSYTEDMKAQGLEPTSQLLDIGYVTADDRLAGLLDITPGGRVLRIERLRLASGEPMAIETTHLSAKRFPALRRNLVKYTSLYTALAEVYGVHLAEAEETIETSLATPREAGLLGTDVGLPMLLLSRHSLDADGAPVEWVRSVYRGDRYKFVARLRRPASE

B1: PBlmR (dsDNA)
DNA 1: GAGAGCACTGTAAGCCCGAACCCGCAAGGATGACGAATTGCAAAATTGTGCAAGTCGCTACATGATGGTCCGGCTGTGCCCGCAGGTAGCCGCGGGCACAGCACCAGACGCTGCCTCCGCGCACCGCGCGGGAGGCCCGGTGAGGCGAGAGGCTGAGGTTCC
DNA 2: GGAACCTCAGCCTCTCGCCTCACCGGGCCTCCCGCGCGGTGCGCGGAGGCAGCGTCTGGTGCTGTGCCCGCGGCTACCTGCGGGCACAGCCGGACCATCATGTAGCGACTTGCACAATTTTGCAATTCGTCATCCTTGCGGGTTCGGGCTTACAGTGCTCTC
B2: PDasA (dsDNA)
DNA 1: CCAAAAGGTCTAGGCCAAGCTGCGGGCACTGGTCTAAACCATTAAAGACCACTTTTCGGTCCTGAGGAGA
DNA 2: TCTCCTCAGGACCGAAAAGTGGTCTTTAATGGTTTAGACCAGTGCCCGCAGCTTGGCCTAGACCTTTTGG

Molecular target: T1, DasR
Assay: EMSA; EMSA buffer (composition, pH and temperature not given), 30 min incubation, 6% native polyacrylamide gel
Conditions: protein: recombinant, tags: C-terminal 6xHis (introduced by reverse primer), chain copies: 2, blunt

| Binder | binding result | binding result (label: 5'-Cy5) |
| --- | --- | --- |
| B1 | no binding | – |
| B2 | – | binds |

— PMC7017467, “Enhancement of bleomycin production in Streptomyces verticillus through global metabolic regulation of N-acetylglucosamine and assisted metabolic profiling analysis”
